Results on 19 proteins are retold here after patent US20170233497A1 (Genmab, published 2017).

The Kd is a measure of binding affinity in units of concentration. A lower Kd goes with higher affinity.

Data set [1] deals with the molecule itself. Kind of data set: native mass spectrometry; monomer-dimer equilibrium of the hinge-less CH2-CH3 fragment (homodimer). On the procedure: (§1) To measure the effect of the above mentioned CH3 mutations on the strength of the CH3-CH3 interaction, fragments composed of only the CH2-CH3 domains were made. The lack of a hinge region in these fragments prevented covalent inter-heavy chain disulfide bonds. The fragments were analyzed by native mass spectrometry. Samples were buffer-exchanged to 100 mM ammonium acetate pH 7, using 10 kDa MWCO spin-filter columns. Aliquots (˜1 μL) of serial diluted samples (20 μM-25 nM; monomer equivalent) were loaded into gold-plated borosilicate capillaries for analysis on a LCT mass spectrometer (Waters). The monomer signal, Mₛ, was defined as the area of the monomer peaks as a fraction of the area of all peaks in the spectrum (Mₛ/(Mₛ+Dₛ) where Dₛ=the dimer signal). The concentration of monomer at equilibrium, [M]eq, was defined as Mₛ·[M]₀ where [M]₀ is the overall protein concentration in terms of monomer. The dimer concentration at equilibrium, [D]eq, was defined as ([M]₀−[M]eq)/2. The KD, was then extracted from the gradient of a plot of [D]eq versus [M]eq².

Data set [2] deals with the molecule itself. Kind of data set: native mass spectrometry; CH2-CH3 fragment homodimer. On the procedure:
as §1, with “The” for “To measure the effect of the above mentioned CH3 mutations on the strength of the CH3-CH3 interaction, fragments composed of only the CH2-CH3 domains were made. The lack of a hinge region in these fragments prevented covalent inter-heavy chain disulfide bonds. The”
It is described in Example 21 that there is a specific range in the strength of the interaction of the CH3-CH3 homodimers that allows efficient Fab-arm-exchange. The strength of the interactions at the CH3 interface should be such that it is possible that both heavy chains in the parental antibodies (homodimers) dissociate in the Fab-arm-exchange reaction and that they subsequently associate in the heterodimerization reaction. To generate a stable heterodimer, the strength of the heterodimer interaction should be greater than the strength of the homodimer interaction, such that it favors heterodimerization over homodimerization. To confirm this, the strength of the CH3-CH3 interaction in the heterodimers was measured and compared to the strength in the homodimers. The KD of the CH2-CH3 fragments derived from IgG1-K409R, IgG1-F405L and IgG1-ITL homodimers were measured as described in Example 21. For the determination of the KD in heterodimers, CH2-CH3 domain fragments (G1-F405L and G1-ITL) were mixed with the IgG1Δhinge fragment of IgG1-7D8-K409R, which contain all antibody domains except the hinge. […] The fragments were mixed and analyzed after 24 hours by native mass spectrometry as described in Example 21. […]

Data set [3] deals with the molecule itself. Nature of the data set: native mass spectrometry; KD compared to the wild type IgG1 CH2-CH3 fragment. The method, then:
as §1

Data set [4] concerns the molecule itself. Kind of data set: native mass spectrometry; KD compared to the wild type IgG4 CH2-CH3 fragment. The method, then: as §1

B1: CH2-CH3 fragment of human IgG1 with K409R (other, UniProt P01857-1 224-330, looked up, name in EU numbering)
chain: GQPREPQVYTLPPSRDELTKNQVSLTCLVKGFYPSDIAVEWESNGQPENNYKTTPPVLDSDGSFFLYSRLTVDKSRWQQGNVFSCSVMHEALHNHYTQKSLSLSPGK
notes: range 341-447; As m1, with the mutation; also called G1-K409R; not shown: N-terminal 6 amino acid His tag
In the case of B1, the Kd in data set [1] and in data set [2] was 110 nM in each case. The fold-difference in data set [3] amounted to 0.03 fold.

B2: CH2-CH3 fragment of human IgG1 with K370T (other, UniProt P01857-1 224-330, looked up, name in EU numbering)
chain: GQPREPQVYTLPPSRDELTKNQVSLTCLVTGFYPSDIAVEWESNGQPENNYKTTPPVLDSDGSFFLYSKLTVDKSRWQQGNVFSCSVMHEALHNHYTQKSLSLSPGK
notes: range 341-447; As m1, with the mutation; also called G1-K370T; not shown: N-terminal 6 amino acid His tag
The protein B2 came in with an equilibrium dissociation constant (Kd) in data set [1] of 45 nM. For the same protein, the fold-difference in data set [3] turned out to be 0.07 fold.

B3: CH2-CH3 fragment of human IgG4 with R409L (other, UniProt P01861-1 221-327, looked up, name in EU numbering)
chain: GQPREPQVYTLPPSQEEMTKNQVSLTCLVKGFYPSDIAVEWESNGQPENNYKTTPPVLDSDGSFFLYSLLTVDKSRWQEGNVFSCSVMHEALHNHYTQKSLSLSLGK
notes: range 341-447; As m7, with the mutation; also called G4-R409L; not shown: N-terminal 6 amino acid His tag
In data set [1], B3 yielded a Kd of 15 nM. Besides, the fold-difference in data set [4] was 3.2 fold.

B4: CH2-CH3 fragment of human IgG4 with E357T (other, UniProt P01861-1 221-327, looked up, name in EU numbering)
chain: GQPREPQVYTLPPSQETMTKNQVSLTCLVKGFYPSDIAVEWESNGQPENNYKTTPPVLDSDGSFFLYSRLTVDKSRWQEGNVFSCSVMHEALHNHYTQKSLSLSLGK
notes: range 341-447; As m7, with the mutation; also called G4-E357T; not shown: N-terminal 6 amino acid His tag
For B4, in data set [1], the Kd was determined as 41000 nM. In addition, in data set [4], the fold-difference is 0.0012 fold.

B5: CH2-CH3 fragment of human IgG4 with R409T (other, UniProt P01861-1 221-327, looked up, name in EU numbering)
chain: GQPREPQVYTLPPSQEEMTKNQVSLTCLVKGFYPSDIAVEWESNGQPENNYKTTPPVLDSDGSFFLYSTLTVDKSRWQEGNVFSCSVMHEALHNHYTQKSLSLSLGK
notes: range 341-447; As m7, with the mutation; also called G4-R409T; not shown: N-terminal 6 amino acid His tag
Regarding B5, in data set [1], the affinity, expressed as Kd, was 720 nM. In data set [4], the fold-difference was 0.07 fold.

B6: CH2-CH3 fragment of human IgG4 with K370Q (other, UniProt P01861-1 221-327, looked up, name in EU numbering)
chain: GQPREPQVYTLPPSQEEMTKNQVSLTCLVQGFYPSDIAVEWESNGQPENNYKTTPPVLDSDGSFFLYSRLTVDKSRWQEGNVFSCSVMHEALHNHYTQKSLSLSLGK
notes: range 341-447; As m7, with the mutation; also called G4-K370Q; not shown: N-terminal 6 amino acid His tag
B6 had a dissociation constant Kd in data set [1] of 11 nM. Besides, the fold-difference in data set [4] worked out at 4.3 fold.

B7: CH2-CH3 fragment of human IgG4 with R409M (other, UniProt P01861-1 221-327, looked up, name in EU numbering)
chain: GQPREPQVYTLPPSQEEMTKNQVSLTCLVKGFYPSDIAVEWESNGQPENNYKTTPPVLDSDGSFFLYSMLTVDKSRWQEGNVFSCSVMHEALHNHYTQKSLSLSLGK
notes: range 341-447; As m7, with the mutation; also called G4-R409M; not shown: N-terminal 6 amino acid His tag
B7 showed a Kd in data set [1] of 3 nM. Also, in data set [4], the fold-difference was 16 fold.

B8: CH2-CH3 fragment of human IgG4 with K370E (other, UniProt P01861-1 221-327, looked up, name in EU numbering)
chain: GQPREPQVYTLPPSQEEMTKNQVSLTCLVEGFYPSDIAVEWESNGQPENNYKTTPPVLDSDGSFFLYSRLTVDKSRWQEGNVFSCSVMHEALHNHYTQKSLSLSLGK
notes: range 341-447; As m7, with the mutation; also called G4-K370E; not shown: N-terminal 6 amino acid His tag
Turning to B8, in data set [1], the dissociation constant (Kd) worked out at 2 nM. In data set [4], the fold-difference worked out at 24 fold.

B9: CH2-CH3 fragment of human IgG4 with S364D (other, UniProt P01861-1 221-327, looked up, name in EU numbering)
chain: GQPREPQVYTLPPSQEEMTKNQVDLTCLVKGFYPSDIAVEWESNGQPENNYKTTPPVLDSDGSFFLYSRLTVDKSRWQEGNVFSCSVMHEALHNHYTQKSLSLSLGK
notes: range 341-447; As m7, with the mutation; also called G4-S364D; not shown: N-terminal 6 amino acid His tag
As for B9, in data set [1], binding was characterised by a dissociation constant (Kd) of 47 nM. The fold-difference in data set [4] was found to be 1.02 fold.

B10: CH2-CH3 fragment of human IgG4 with R409A (other, UniProt P01861-1 221-327, looked up, name in EU numbering)
chain: GQPREPQVYTLPPSQEEMTKNQVSLTCLVKGFYPSDIAVEWESNGQPENNYKTTPPVLDSDGSFFLYSALTVDKSRWQEGNVFSCSVMHEALHNHYTQKSLSLSLGK
notes: range 341-447; As m7, with the mutation; also called G4-R409A; not shown: N-terminal 6 amino acid His tag
In the case of B10, the dissociation constant (Kd) in data set [1] is 160 nM. Moreover, the fold-difference in data set [4] turned out to be 0.3 fold.

B11: CH2-CH3 fragment of wild type human IgG4 (other, UniProt P01861-1 221-327, looked up)
chain: GQPREPQVYTLPPSQEEMTKNQVSLTCLVKGFYPSDIAVEWESNGQPENNYKTTPPVLDSDGSFFLYSRLTVDKSRWQEGNVFSCSVMHEALHNHYTQKSLSLSLGK
notes: range 341-447; His-tagged fragment without hinge; the KD is its non-covalent self-association (CH3-CH3 homodimer); not shown: N-terminal 6 amino acid His tag
Consider B11, for which the affinity in data set [1], expressed as Kd, was 48 nM. Besides, the fold-difference in data set [4] was found to be 1 fold.

B12: CH2-CH3 fragment of human IgG4 with F405L (other, UniProt P01861-1 221-327, looked up, name in EU numbering)
chain: GQPREPQVYTLPPSQEEMTKNQVSLTCLVKGFYPSDIAVEWESNGQPENNYKTTPPVLDSDGSFLLYSRLTVDKSRWQEGNVFSCSVMHEALHNHYTQKSLSLSLGK
notes: range 341-447; As m7, with the mutation; also called G4-F405L; not shown: N-terminal 6 amino acid His tag
Regarding B12, in data set [1], the Kd stood at 25000 nM. For the same protein, in data set [4], the fold-difference worked out at 0.0019 fold.

B13: CH2-CH3 fragment of human IgG1 with T350I (other, UniProt P01857-1 224-330, looked up, name in EU numbering)
chain: GQPREPQVYILPPSRDELTKNQVSLTCLVKGFYPSDIAVEWESNGQPENNYKTTPPVLDSDGSFFLYSKLTVDKSRWQQGNVFSCSVMHEALHNHYTQKSLSLSPGK
notes: range 341-447; As m1, with the mutation; also called G1-T350I; not shown: N-terminal 6 amino acid His tag
For B13, the Kd in data set [1] is 7 nM. Also, in data set [3], the fold-difference stood at 0.4 fold.

B14: CH2-CH3 fragment of human IgG4 with R409K (other, UniProt P01861-1 221-327, looked up, name in EU numbering)
chain: GQPREPQVYTLPPSQEEMTKNQVSLTCLVKGFYPSDIAVEWESNGQPENNYKTTPPVLDSDGSFFLYSKLTVDKSRWQEGNVFSCSVMHEALHNHYTQKSLSLSLGK
notes: range 341-447; As m7, with the mutation; also called G4-R409K; not shown: N-terminal 6 amino acid His tag
The protein B14 came in with a Kd in data set [1] of 8 nM. In data set [4], the fold-difference came to 6 fold.

B15: CH2-CH3 fragment of human IgG4 with F405A (other, UniProt P01861-1 221-327, looked up, name in EU numbering)
chain: GQPREPQVYTLPPSQEEMTKNQVSLTCLVKGFYPSDIAVEWESNGQPENNYKTTPPVLDSDGSFALYSRLTVDKSRWQEGNVFSCSVMHEALHNHYTQKSLSLSLGK
notes: range 341-447; As m7, with the mutation; also called G4-F405A; not shown: N-terminal 6 amino acid His tag
For B15, the equilibrium dissociation constant (Kd) in data set [1] was found to be 19000 nM. Moreover, the fold-difference in data set [4] came to 0.0025 fold.

B16: CH2-CH3 fragment of human IgG1 with F405L (other, UniProt P01857-1 224-330, looked up, name in EU numbering)
chain: GQPREPQVYTLPPSRDELTKNQVSLTCLVKGFYPSDIAVEWESNGQPENNYKTTPPVLDSDGSFLLYSKLTVDKSRWQQGNVFSCSVMHEALHNHYTQKSLSLSPGK
notes: range 341-447; As m1, with the mutation; also called G1-F405L; not shown: N-terminal 6 amino acid His tag
As for B16, the affinity in data set [2], expressed as Kd, was 850 nM.

B17: CH2-CH3 fragment of human IgG4 with R409W (other, UniProt P01861-1 221-327, looked up, name in EU numbering)
chain: GQPREPQVYTLPPSQEEMTKNQVSLTCLVKGFYPSDIAVEWESNGQPENNYKTTPPVLDSDGSFFLYSWLTVDKSRWQEGNVFSCSVMHEALHNHYTQKSLSLSLGK
notes: range 341-447; As m7, with the mutation; also called G4-R409W; not shown: N-terminal 6 amino acid His tag
The protein B17 gave a Kd in data set [1] of 34000 nM. Further, in data set [4], the fold-difference stood at 0.0014 fold.

B18: CH2-CH3 fragment of human IgG4 with L351K (other, UniProt P01861-1 221-327, looked up, name in EU numbering)
chain: GQPREPQVYTKPPSQEEMTKNQVSLTCLVKGFYPSDIAVEWESNGQPENNYKTTPPVLDSDGSFFLYSRLTVDKSRWQEGNVFSCSVMHEALHNHYTQKSLSLSLGK
notes: range 341-447; As m7, with the mutation; also called G4-L351K; not shown: N-terminal 6 amino acid His tag
The protein B18 registered a Kd in data set [1] of 740 nM. Moreover, the fold-difference in data set [4] amounted to 0.06 fold.

B19: CH2-CH3 fragment of human IgG1 with T350I-K370T-F405L (other, UniProt P01857-1 224-330, looked up, name in EU numbering)
chain: GQPREPQVYILPPSRDELTKNQVSLTCLVTGFYPSDIAVEWESNGQPENNYKTTPPVLDSDGSFLLYSKLTVDKSRWQQGNVFSCSVMHEALHNHYTQKSLSLSPGK
notes: range 341-447; also called G1-ITL; not shown: N-terminal 6 amino acid His tag
Consider B19, for which the results for the Kd in data set [1] and in data set [2] were 1000 nM and 1200 nM, respectively. For the same protein, in data set [3], the fold-difference amounted to 0.003 fold.
